# Experimental data taken from the DeepSol protein solubility set.
# Test: soluble on expression in E. coli; label from the status in PepcDB or PDB records
row,Sequence,soluble on expression in E. coli
1,MPVERVIDRPTPEEHLLERILATENMDLAWKRVRANKGAPGVDGVTIDAFPERFRPLWGDIRASLATGTYQPQPVLRVEIPKPTGGTRPLGIPTVLDRLIQQATAQVLTPIFDPEFSASSFGFRPGRSAHNAVRQLREYLRQGYRIAVDIDLAKFFDTVNHDLLMTMVGRRVRDKRVLTLIGRYLRAGVEVDGRLEKTRMGVPQGGPLSPLLANILLDHLDKELESRGHKFVRYADDFVILVKSERAGERVMGSVRKYLTNKLKLTVNEDKSKVARSGDLSFLGFVFKGTKILWSDQAYKEFRRRVRKYTGRSWFVSMEYRLNKLSTYLRGWMGYFGIAEAYRDIPEIDGWIRRRVRLCYWKQWRWCRTKIRNLLKLGVQLGTSIRAGLNRNGPWAMSRRLAAQHGMTNQWLKDQGLVSVKELWVKIHYPATARLEHHHHHH,not soluble
2,MFSWQEFTERDVSLFTENVIRSLINTKYNVICHIEDYTPPQFDSFLQLSACYNIGEKTEDEVINSDGIRWSKKKDSLGSEMKPRKNTISVDGRTFRRINCSSPPPATNLFKKYMAIEEATKLCWILFLGSSHDVIDYTSLKVARKKLSKEEALMIRKMLEGRTVLMVYQMLGGKYSKRQIKDQQRNVLTTVKLNRGPRPVTNPADLCDLSRMFSHAYHSSHRNSIRFIYFNKSMLGLFLKSCPTYTEITTYRNRMDGIENWRTADLNKHLADCKVYTCGGIDTRVASIIELDTTFGLSNGYISVTTGFIPVFRTRQHTKSSPSKLRHVVLGFMFHSSKHKSHFEDFSGRLNEILQELDPKKIKKIQL,not soluble
3,MKLALLGRQALMGVMAVALVAGMSAKSFADEGLLNKVKERGTLLVGLEGTYPPFSFQGEDGKLTGFEVDFAEALAKHLGVKASLKPTKWDGMLASLDAKRIDVVINQVTISDVRKKKYDFSTPYTVSGIQALVKKGNEGTIKTAADLQGKKVGVGLGTNYEEWLRQHVQGVDIRTYDDDPTKYQDLRVGRIDAILVDRLAALDLVKKTKGTLAVTGDAFSRQESGVALRKGNEDLLKAVDNAIAEMQKDGTLKALSEKWFGADVTQ,not soluble
4,MGKTNDWLDFDQLAEEKVRDALKPPSMYKVILVNDDYTPMEFVIDVLQKFFSYDVERATQLMLAVHYQGKAICGVFTAEVAETKVAMVNKYARENEHPLLCTLEKAGA,soluble
5,MPAPDLGFALSLPPKKAIEWLESKKVTAESYRNLTASEIAKVYTIARMTDLDMLNDIKTSMVESAKSGQSFDDWRKGILNLLSNKGWLHPNGHNGKDIIDPATGEVFGSPRRLETIYRTNMQTAYNAGQYQGYMANIDARPYWMYDAVGDSRTRPAHSAIDGLVYRYDDPFWATFYPPNGYNCRCSVIALSERDVERQGRIVGQSTADNLVETHKIYNKKGDTYLTLAYKAPDGSLYTTDRGFDYNAGRMNYRPDLDKYDRALAHQFAKAEMGGADFKTSFKQLEKEFYEVKQRLDIDGKPDKEQKIKIRNALSRQLKFAAGVLSKETQELAGMTRATVWLSDDTLVKQVDSREGQNFDDSYYAFLPDMLQNPEHVIRDNRELIFTARYKGSALWAVLKYIKEVDEIYLQSYRISNDKEIAKFMAKKKVLK,not soluble
6,MGSDKIHHHHHHMSKKQEEIAIKEQRLLSMMEENELEGICLSRAANFAWLTAGSNNRVVWGQETGAAALVIVEGRKFLVAPQNEIERLMLEQVADLGFEPWTYEWYEDRQQAIARLVGNKKIGSDIPLGNWPVIEAELKRLRFSLTDHEVERAEKLAAICSDDLAAVCQAIVPGWSEWNIQVELSNRLLKQGVRASVLLVGADDRTRFKHPLPTLNPVCNYVIIGLVGEQCGLHMALTRSIYFGRVPEALRQNYNCCLAVERTYWENSVVDADSQKVFQQGINAYADLGHPEEWKRHHQGGAIGYAPREFRAGEGRREVMQDRQMLAWNPTVENTKCEDTCLVTPTGLKSMTTVPSWWPTTTVKAGNINFLRPLILEK,not soluble
7,QAPEQRSIRDGILLLHELGALTDDTQADGSPQLTQIGKDLANIPVDPRMARMLVEANTLGCLHSVMVIVSALTIQDVRERPLEFQAQADQAHARFKDTT,not soluble
8,MGSDKIHHHHHHMGKQQIWKNWWENHTCTPEHYYQPEQIDEVVEIIKSANLEQKQIKVIGSGRSWSDIPCTDGYMISLDKFNQVLDIDIEQKTVIVKSGIRIYQLVDILAKHGLALSSLGSICEQSIAGAISTGTHGNSLHQGGLASSILELELVNGIGEVIKCSKSENPDLFSAALIGLGAIGIITQVKIQCCNQFWLTETLQCWNIKDVLENLDTLKKNDYCRFWYTTTNKDAIVQTFSDSQILEKTGFIHFIKRIITQIFWFLWISWHDNPAEHDSQSFTRKDESQHILCYPRFFLKLYKLSFRMTKYCQNVLISEYGIPEEMASIAMNKILSLVDRGIIKGHLRFEVRFGAAEDVWLSTAYQRPTCYIQVLFEKKNFTSTQDQNDAFIQVENIIKNLAGRPHWAKDHLYTNDDLRSTYPRWQEFLQIRQQTDPQQCFTNSYLNKIFDDVRRTA,not soluble
9,MSLGYKQIRDVSVLCDFAANCTLSLNPGTGENAPGIGLYRSSKADSIPELRLSFSEQMPKTGKLEILVDGKPELDTNIAALKVRNNELVYVDEAGVAKLIGAMKNGQKLQLKLADKVSGYSLSGFVGGLIYLDEQQARDGTVAALQVKGTKPAPAAPDITLIETVEQIPEGIRKDFSDDAATCGGASPESFRLAGGFVTKIADGLNLVGLPCGAPGAYNQPYVFYSRYENRIVPVSLPVISDDGPTTTDSAWNIDWNNRTRTLTGFFKGRGIGDCGTYDVWKAVDSGEGRVSFVLKEERAKGDCDGNYAGGPQNWPASWPPKTKEGHHHHHH,soluble
10,MNDRARELASRLIRNFNEASLEHEVREPLYESAAARLGTGTVAHKLGASVDVVAPGKRSCPYHFHHAQEEMFVIIEGEGSLRVAGEMLPIKTGDVLFIPAGPEYPHQIINTSQAPLKYLSISTRETPEVCEYPDSGKYQAMVSANGARVFTANQRTTENVDYWDGEPLEHHHHHH,soluble
11,MVKVYGSTVDNESRCTHYQTPLDIIAIKFKCCNKYYPCYKCHNEHESHKIQRWQANEFHEKAILCGVCNHEMTINDYMMIEACPKCDAHFNNRCKYHYHLYFEILEHHHHHH,soluble
12,GNIAKPIRILGNGMDRVANGELETRISQQVDDRDDELSHLAIQFDKMVEKLEKLVAKERHLLHHVSHEMRSPLARMQAIVGLIQAQPQKQEQYLKRLEGELTRMDTLAGELLTLSRLETSNMALEKESLKLLPFLGNLVEDNQSIAQKNGQTVTLSADGKIPENTTILANESYLY,not soluble
13,QSQGGGSVTKKRKLESSESRSSFSQHARTSGRVAVEEVDEEGKFVRLRNKSNEDQSMGNWQIRRQNGDDPLMTYRFPPKFTLKAGQVVTIWASGAGATHSPPTDLVWKAQNTWGCGSSLRTALINSTGEEVAMRKLVR,soluble
14,ATTLYLTRHGETKWNVERRMQGWQDSPLTEKGRQDAMRLGKRLEAVELAAIYTSTSGRALETAEIVRGGRLIPIYQDERLREIHLGDWEGKTHDEIRQMDPIAFDHFWQAPHLYAPQRGERFCDVQQRALEAVQSIVDRHEGETVLIVTHGVVLKTLMAAFKDTPLDHLWSPPYMYGTSVTIIEVDGGTFHVAVEGDVSHIEEVKEV,soluble
15,MSIAQEFEKANTHYSSNFTKRDLPLPPARKVAVVICMDARIDPAASLGLTEGDAHVIRNAGGRASDALRSVIISQRLLGTREIVVVHHTDCGMLTFSDNDLRGIVAKETGHNVDHFAFLPFGDLEKSVKDDVEFFKRNPLVLDVPVTGYIYDVKSGAINKVDS,soluble
16,MGSDKIHHHHHHMPRQWNTDALSAGHLSCSSFFPFALTNKIIGRIKKKNNRMKGNNQLCTLLKLCLLSMLAFGTAKAQIQIVGAPSMKALDDSPNRLQVFMLHTLNPASVILRFAGAGTGKLYRYTTKAIEAEEVTTATYSDGMWTLTAPQLNCGYFVSGDGRLPQYYWISNYADYALFVSAVTGKPSETSPCISMDLAVDAAIRPIPYFQPNGIPRRLDRHVQISYPDMEWDAEARLFRPSTKEVEVEASDDERTLVVSASLADAVYTIHGDRFTKELSLPFTAVATDEILTPKVEVYAFVDKVDGGSAIGDNTPEEGDASLVSAPFTVMLAAYGNEPSAANFVWRIYRTEEGAENSVLVYNGTSTEFTFRQAGIYSILLQATNRTGTCTDEVLLENYFKVAESSLIVPNAFSPYGSPGVNDVFRVKHSSLVHFDGRIFDSWGKQIFRWTNPDEGWDGKYRGKMMPTGVYYYVIEAEGADGIKYKRKGDINILRPAYEIPLGGNLPR,not soluble
17,MGHHHHHHSHMEQFEVIKQQKEIIEHGIELFNKKPKRGIQFLQEQGMLGTSVEDIAQFLHQEERLDSTQVGDFLGDSARFNKEVMYAYVDQLDFCEKEFVSALRTFLEGFRLPGEAQKIDRLMEKFAARYIECNQGQTLFASADTAYVLAYSIIMLTTDLHSPQVKNKMTKEQYIKMNRGINDSKDLPEEYLSSIYEEIEGKKIAMKETKELT,soluble
18,MSAVTYTFLGPQGTFTEAALMQVPGAADATRIPCTNVNTALERVRAGEADAAMVPIENSVEGGVTATLDAIATGQELRIIREALVPITFVLVARPGVELSDIKRISTHGHAWAQCRLWVDEHLPNADYVPGSSTAASAMGLLEDDAPYEAAICAPLIAAEQPGLNVLAEDIGDNPDAVTRFILVSRPGALPERTGADKTTVVVPLPEDHPGALMEILDQFASRGVNLSRIESRPTGQYLGHYFFSIDADGHATDSRVADALAGLHRISPATRFLGSYARADKQPAVVAPHTSDAAFASAHAWVDSILKGS,soluble
19,MGSDKIHHHHHHEEEEQKPAYGKIDVAVSVTLPQPESVNTLTRAGGPYTDTDIKNADLLIFDKDAKFMERVKVENDRLVITGTGINFTVRLDATSERRIIHLVANGRSADGTSDRLNFGDITPGMTENAAISSLQTASLEHVDEGESTLLNHVMPLVMWGRFALNGINIVTKAEGVKLLRSTACIQVKKGNGGGNTGLDDFVIEGITVHQGACHGFLAPTDCTGEVNTPVVTNPVTGGIYLDYRKGWVNGAEPSLYIYERNCSASDYMGVVIAARYKGKKGYYKVVMNGNDGSPLNIVRNHRYIVTVVGVNGPGYESPDIAVASAPSNALKVELTDEDTDLPCIVADGQYRMASSNNVFSLYGKTGVTTSATGVDICTVYSSRGIQPVLTLPDDCNWLTNLSAQALGSNKYKITGDFTSAANDAVATTLTMTCDNLSQPVRVSWNPIISDQKDTDSFVLDLVGSTDRNWTVRVLNPTSPGWLFLHPSAASPGALPGDGMVSELSSKYSSHAYLHVAFGASRRGTVQMTSASSGETVARKIVVIQ,not soluble
20,CGGCGEDVVGDGAGVVALDRVFHVGCFVCSTCRAQLRGQHFYAVERRAYCEGCYVATLE,soluble
21,MIERLLEIKKIRADRADKAVQRQEYRVANVAAELQKAERSVADYHVWRQEEEERRFAKAKQQTVLLKELETLRQEIALLREREAELKQRVAEVKVTLEQERTLLKQKQQEALQAHKTKEKFVQLQQQEIAEQSRQQQYQEELEQEEFRTVDIIAAALEHHHHHH,soluble
22,RIVEIPVCYGGEFGPDLEEVAKINQLSPEEVIDIHTNGEYVVYMLGFAPGFPFLGGMSKRIAAPRKSSPRPSIPAGSVGIAGLQTGVYPISTPGGWQLIGKTPLALFRPQENPPTLLRAGDIVKFVRISEKDYHAYKEESN,soluble
23,MKIGYLGPRGTFTEMAVQTLFDDKNVLKPYRTIPDCMDSVANGDMDAAVVPVENAIEGSVNVTLDYLIHKQRLEIVADIVVPISQHFLVHPNQRDNEIKKILSHPHAVAQCHEFLRSSYPGVEIEYMTSTAAAAQWVADHPNEPVAAIANEQAATSYQLDMLEKDIHDYDENRTRFAVLAKGKLSLPPYQVEPYTKKTTMMVTLSSDFSGALHQVLSAFAWRKLNLTKIESRPMKTGLGNYFFIIDVDCEADDVLIPGVMQELEALGCGVELLGSYPCFFHTSLKLTEASSV,not soluble
